According to the supplement of paper PMC6757056:
± gives the standard deviation of the averaged measurements.

B1: library; a variant is named by its letters at N, in order (parent)
chain: GCUGUCACCGGUGUAUUACCCUAGUGGUCGACCGGUCUGAUGAGUCUNNNNNNAGACGAAACAGC

Experiments:
hypoxanthine [1] = variants of: B1; assay: normalized RNA/DNA level with ligand (relative to sTRSVctl = 100) (log10 (% of sTRSVctl)); ligand: hypoxanthine (xanthine aptamer); higher = less ribozyme self-cleavage, higher mRNA level; details: ligand concentration (+) RNA-Seq: 5 mM, HEK293T, reporter: mCherry (pCS4076), ligand present: yes
Procedure, shortened: (§1)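 Ribozyme switch library plasmids with mCherry reporters (eGFP in certain ligand experiments) went into HEK293T cells at 4 µg per 6-well well. Where ligand was used, it was applied 1 h before transfection, and total RNA was extracted with EDTA 72 h later for reverse transcription, amplification, barcoding and sequencing. RNA level is the RNA-to-DNA read ratio normalized to a spiked-in non-cleaving sequence or to the leading sequences, then scaled and log-transformed. Scaling was ×100 with log10, the leading set comprised 25 sequences, and the cutoff was ≥100 DNA reads.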

hypoxanthine [2] = variants of: B1; assay: normalized RNA/DNA level without ligand (relative to sTRSVctl = 100) (log10 (% of sTRSVctl)); ligand: hypoxanthine (xanthine aptamer); higher = less ribozyme self-cleavage, higher mRNA level; details: HEK293T, reporter: mCherry (pCS4076), ligand present: no
Procedure, shortened: as §1

Question: How did the “normalized RNA/DNA level with ligand (log10)” value (hypoxanthine [1]) turn out when GCUGUCACCGGUGUAUUACCCUAGUGGUCGACCGGUCUGAUGAGUCUCCCUCGAGACGAAACAGC [CCCUCG] was run?
Answer: Its value is 1.93 ± 0.087.

Question: And the “normalized RNA/DNA level without ligand (log10)” value (hypoxanthine [2])?
Answer: The value was 1.8103 ± 0.0013.

Question: GCUGUCACCGGUGUAUUACCCUAGUGGUCGACCGGUCUGAUGAGUCUCCCUCCAGACGAAACAGC [CCCUCC] was tested. Which “normalized RNA/DNA level with ligand (log10)” value (hypoxanthine [1]) did it give?
Answer: Its value is 1.95 ± 0.065.

Question: And the “normalized RNA/DNA level without ligand (log10)” value (hypoxanthine [2])?
Answer: Its value is 2 ± 0.08.

Question: How did the “normalized RNA/DNA level with ligand (log10)” value (hypoxanthine [1]) turn out when GCUGUCACCGGUGUAUUACCCUAGUGGUCGACCGGUCUGAUGAGUCUGCCGGCAGACGAAACAGC [GCCGGC] was run?
Answer: The value was 1.96 ± 0.066.

Question: What about the “normalized RNA/DNA level without ligand (log10)” value (hypoxanthine [2]) of the same variant?
Answer: Its value is 1.762 ± 0.015.

Question: What does the source list for GCUGUCACCGGUGUAUUACCCUAGUGGUCGACCGGUCUGAUGAGUCUGCCGGGAGACGAAACAGC [GCCGGG]?
Answer: normalized RNA/DNA level with ligand (log10) (hypoxanthine [1]): 1.94 ± 0.023; normalized RNA/DNA level without ligand (log10) (hypoxanthine [2]): 1.87 ± 0.06

Question: How did the “normalized RNA/DNA level with ligand (log10)” value (hypoxanthine [1]) turn out when GCUGUCACCGGUGUAUUACCCUAGUGGUCGACCGGUCUGAUGAGUCUACCGGCAGACGAAACAGC [ACCGGC] was run?
Answer: The value was 2.001 ± 0.012.

Question: And the “normalized RNA/DNA level without ligand (log10)” value (hypoxanthine [2])?
Answer: The value was 1.96 ± 0.073.

Question: Which results are given for GCUGUCACCGGUGUAUUACCCUAGUGGUCGACCGGUCUGAUGAGUCUACCGGUAGACGAAACAGC [ACCGGU]?
Answer: normalized RNA/DNA level with ligand (log10) (hypoxanthine [1]): 1.99 ± 0.076; normalized RNA/DNA level without ligand (log10) (hypoxanthine [2]): 1.844 ± 0.0038

Question: For GCUGUCACCGGUGUAUUACCCUAGUGGUCGACCGGUCUGAUGAGUCUUCCGGCAGACGAAACAGC [UCCGGC], which “normalized RNA/DNA level with ligand (log10)” value (hypoxanthine [1]) is on record?
Answer: Its value is 2.019 ± 0.0041.

Question: And the “normalized RNA/DNA level without ligand (log10)” value (hypoxanthine [2])?
Answer: The value was 1.85 ± 0.056.

Question: Which “normalized RNA/DNA level with ligand (log10)” value (hypoxanthine [1]) does the source give for GCUGUCACCGGUGUAUUACCCUAGUGGUCGACCGGUCUGAUGAGUCUUCCGGUAGACGAAACAGC [UCCGGU] here?
Answer: Its value is 1.98 ± 0.037.

Question: What about the “normalized RNA/DNA level without ligand (log10)” value (hypoxanthine [2]) of the same variant?
Answer: The value was 1.83 ± 0.054.

Question: Which “normalized RNA/DNA level with ligand (log10)” value (hypoxanthine [1]) does the source give for GCUGUCACCGGUGUAUUACCCUAGUGGUCGACCGGUCUGAUGAGUCUUCCUAAAGACGAAACAGC [UCCUAA] here?
Answer: Its value is 1.956 ± 0.019.

Question: And the “normalized RNA/DNA level without ligand (log10)” value (hypoxanthine [2])?
Answer: The value was 1.807 ± 0.017.

Question: GCUGUCACCGGUGUAUUACCCUAGUGGUCGACCGGUCUGAUGAGUCUUCCUAGAGACGAAACAGC [UCCUAG] was tested. Which “normalized RNA/DNA level with ligand (log10)” value (hypoxanthine [1]) did it give?
Answer: The value was 1.91 ± 0.066.

Question: What about the “normalized RNA/DNA level without ligand (log10)” value (hypoxanthine [2]) of the same variant?
Answer: The value was 1.65 ± 0.038.

Question: Which “normalized RNA/DNA level with ligand (log10)” value (hypoxanthine [1]) does the source give for GCUGUCACCGGUGUAUUACCCUAGUGGUCGACCGGUCUGAUGAGUCUUCCUAUAGACGAAACAGC [UCCUAU] here?
Answer: The value was 1.957 ± 0.0089.

Question: And the “normalized RNA/DNA level without ligand (log10)” value (hypoxanthine [2])?
Answer: Its value is 1.851 ± 0.0031.

Question: Which results are given for GCUGUCACCGGUGUAUUACCCUAGUGGUCGACCGGUCUGAUGAGUCUACCGUUAGACGAAACAGC [ACCGUU]?
Answer: normalized RNA/DNA level with ligand (log10) (hypoxanthine [1]): 1.91 ± 0.06; normalized RNA/DNA level without ligand (log10) (hypoxanthine [2]): 1.835 ± 0.011

Question: For GCUGUCACCGGUGUAUUACCCUAGUGGUCGACCGGUCUGAUGAGUCUACCGUGAGACGAAACAGC [ACCGUG], which “normalized RNA/DNA level with ligand (log10)” value (hypoxanthine [1]) is on record?
Answer: The value was 1.8625 ± 0.00016.

Question: What about the “normalized RNA/DNA level without ligand (log10)” value (hypoxanthine [2]) of the same variant?
Answer: Its value is 1.45 ± 0.051.

Question: GCUGUCACCGGUGUAUUACCCUAGUGGUCGACCGGUCUGAUGAGUCUACCGUCAGACGAAACAGC [ACCGUC] was tested. Which “normalized RNA/DNA level with ligand (log10)” value (hypoxanthine [1]) did it give?
Answer: The value was 1.982 ± 0.0058.

Question: And the “normalized RNA/DNA level without ligand (log10)” value (hypoxanthine [2])?
Answer: The value was 2 ± 0.026.

Question: GCUGUCACCGGUGUAUUACCCUAGUGGUCGACCGGUCUGAUGAGUCUUCCGUCAGACGAAACAGC [UCCGUC] was tested. Which “normalized RNA/DNA level with ligand (log10)” value (hypoxanthine [1]) did it give?
Answer: Its value is 1.97 ± 0.059.

Question: What about the “normalized RNA/DNA level without ligand (log10)” value (hypoxanthine [2]) of the same variant?
Answer: The value was 2.03 ± 0.042.

Question: How did the “normalized RNA/DNA level with ligand (log10)” value (hypoxanthine [1]) turn out when GCUGUCACCGGUGUAUUACCCUAGUGGUCGACCGGUCUGAUGAGUCUUCCGUAAGACGAAACAGC [UCCGUA] was run?
Answer: Its value is 1.956 ± 0.0079.

Question: What about the “normalized RNA/DNA level without ligand (log10)” value (hypoxanthine [2]) of the same variant?
Answer: The value was 1.7408 ± 0.0014.

Question: What does the source list for GCUGUCACCGGUGUAUUACCCUAGUGGUCGACCGGUCUGAUGAGUCUACCUCCAGACGAAACAGC [ACCUCC]?
Answer: normalized RNA/DNA level with ligand (log10) (hypoxanthine [1]): 1.99 ± 0.03; normalized RNA/DNA level without ligand (log10) (hypoxanthine [2]): 1.919 ± 0.018

Question: GCUGUCACCGGUGUAUUACCCUAGUGGUCGACCGGUCUGAUGAGUCUACCUCGAGACGAAACAGC [ACCUCG] was tested. Which “normalized RNA/DNA level with ligand (log10)” value (hypoxanthine [1]) did it give?
Answer: The value was 1.928 ± 0.017.

Question: And the “normalized RNA/DNA level without ligand (log10)” value (hypoxanthine [2])?
Answer: Its value is 1.62 ± 0.062.

Question: What does the source list for GCUGUCACCGGUGUAUUACCCUAGUGGUCGACCGGUCUGAUGAGUCUACCUCAAGACGAAACAGC [ACCUCA]?
Answer: normalized RNA/DNA level with ligand (log10) (hypoxanthine [1]): 1.904 ± 0.0082; normalized RNA/DNA level without ligand (log10) (hypoxanthine [2]): 1.89 ± 0.027

Question: Which “normalized RNA/DNA level with ligand (log10)” value (hypoxanthine [1]) does the source give for GCUGUCACCGGUGUAUUACCCUAGUGGUCGACCGGUCUGAUGAGUCUACCUAUAGACGAAACAGC [ACCUAU] here?
Answer: Its value is 1.908 ± 0.015.

Question: And the “normalized RNA/DNA level without ligand (log10)” value (hypoxanthine [2])?
Answer: The value was 1.792 ± 0.0054.

Question: For GCUGUCACCGGUGUAUUACCCUAGUGGUCGACCGGUCUGAUGAGUCUACCUAAAGACGAAACAGC [ACCUAA], which “normalized RNA/DNA level with ligand (log10)” value (hypoxanthine [1]) is on record?
Answer: Its value is 1.942 ± 0.012.

Question: And the “normalized RNA/DNA level without ligand (log10)” value (hypoxanthine [2])?
Answer: The value was 1.87 ± 0.028.
